The target of the assay is WT1 (mutant) peptide presented by HLA-A*24:02 on HLA-A*24:02 positive LCL (human). Description: cell-based or functional assay.

B1: 37F8-derived TCR, WT1 TCR A12-3/B5-1 (TCR α-chain TRAV12-3/TRAJ52/TRAC, TCR β-chain TRBV5-1/TRBD2/TRBJ2-5/TRBC2) (TCR)
TCR alpha: WVWSQQKEVEQDPGPLSVPEGAIVSLNCTYSNSAFQYFMWYRQYSRKGPELLMYTYSSGNKEDGRFTAQVDKSSKYISLFIRDSQPSDSATYLCATSNAGGTSYGKLTFGQGTILTVHPNIQNPDPAVYQLRDSKSSDKSVCLFTDFDSQTNVSQSKDSDVYITDKTVLDMRSMDFKSNSAVAWSNKSDFACANAFNNSIIPEDTFFPSPESSCDVKLVEKSFETDTNLNFQNLSVIGFR
TCR beta: GPVKAGVTQTPRYLIKTRGQQVTLSCSPISGHRSVSWYQQTPGQGLQFLFEYFSETQRNKGNFPGRFSGRQFSNSRSEMNVSTLELGDSALYLCASSYGERERKGETQYFGPGTRLLVLEDLKNVFPPEVAVFEPSEAEISHTQKATLVCLATGFYPDHVELSWWVNGKEVHSGVSTDPQPLKEQPALNDSRYCLSSRLRVSATFWQNPRNHFRCQVQFYGLSENDEWTQDRAKPVTQIVSAEAWGRADCGFTSESYQQGVLSATILYE
As for B1, the cytotoxic activity (%) is 73%.

The record behind these values is patent publication US20140212888A1.
